Measured values taken from publication PMC4659945, “X-ray structure and activities of an essential Mononegavirales L-protein domain” (Nature Communications, 2015).

Target: the molecule itself
Assay: crystal structure; CR-VI+ crystals, space group P2_(1)2_(1)2_(1), two molecules in the asymmetric unit; vapour diffusion at 20.5 °C, PGA-HT screen C11 (pH 6.5) with 0.1 M guanidine hydrochloride

B1: CR-VI+ domain of human metapneumovirus (hMPV) L protein (domain or fragment)
chain: NALLTPIPSPMVNLTQVIDPTEQLAYFPKITFERLKNYDTSSNYAKGKLTRNYMILLPWQHVNRYNFVFSSTGCKVSLKTCIGKLMKDLNPKVLYFIGEGAGNWMARTACEYPDIKFVYRSLKDDLDHHYPLEYQRVIGELSRIIDSGEGLSMETTDATQKTHWDLIHRVSKDALLITLCDAEFKDRDDFFKMVILWRKHVLSCRICTTYGTDLYLFAKYHAKDCNVKLPFFVRSVATFIMQGSKLSGSECYILLTLGHHNNLPCHGEIQNSKMKIAVCNDFYAAKKLDNKSIEANCKSLLSGLRIPINKKELNRQRRLLTLQSNHSSVATVGGSKVIESKWLTNKANTIIDWLEHILNSPKGELNYDFFEALENTYPNMIKLIDNLGNAEIKKLIKVTGYMLVSKK
modifications: disulphide between C1877 of the two copies
notes: L protein (large RNA polymerase) of human metapneumovirus isolate 00-1, GenBank AF371337.2, residues 1599-2005 (CR-VI ~1616-1883 and +domain 1884-2005); synthetic gene, codon optimised for Sf cells; The text calls it a 406-residue fragment, but 1599-2005 counts 407 residues; A selenomethionine form was used for phasing; The construct was also expressed in HEK293T and BL21 Star; crystals came from …
stoichiometry N: 2
